Assay results published in the nanobody polyreactivity screen of Harvey et al. (2022).

Assay: yeast display, Sf9 membrane polyspecificity reagent, FACS + sequencing; frameworks hold sequencing errors
Procedure, shortened: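 Nanobodies came from a synthetic yeast display library in Saccharomyces cerevisiae BJ5465, induced with galactose for 36–48 hours and stained for 1 hour at 4 °C with 10% biotinylated, detergent-solubilized Sf9 membrane reagent. Cells were enriched on streptavidin microbeads and then FACS-sorted, with low and high (top ~1%) gates set on anti-HA fluorescence for expression and streptavidin fluorescence for reagent binding. Each polyreactivity label reflects the gate a clone came from. Genes were amplified by colony PCR, sequenced by MiSeq 2 × 250 and filtered by CDR length.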

Q: Which “polyreactivity (PSR sort gate)” value does the source give for “QVQLVESGGGLVQAGGSLRLSCAASGSTFFHYAMGWYRQAPGKERELVAAISGSGGSTYYADSVKGRFTISRDNAKNTVYLQMNSLKPEDTAVYYCNARVWHYTSRTTFDYWGQGTQVTVSS” here?
A: Its value is “low polyreactivity”.

Q: For “QVQLVESGGGLVQAGGSLRLSCAASGFTFVAYAMGWYRPAPGKERELVAAIRRTDTSTYYADSVKGRFTISRDNAKNTVYLQMNSLKPEDTAVYYCAADYWRRTYLGFDYWGQGTQVTVSS”, which “polyreactivity (PSR sort gate)” value is on record?
A: Its value is “low polyreactivity”.

Q: Which “polyreactivity (PSR sort gate)” value does the source give for “QVQLVESGGGLVQAGGSLRFSCAASGSTFVYYGMGWDRQAPGKERELVAAITDIGDSTNYADSVKGRFTISRDNAKNTVYLQMNSLKPEDTAVYYCAASGRSVPYYGSPRNDYWGQGTQVTVSS” here?
A: Its value is “low polyreactivity”.

Q: With “QVQLVESGGGLVQAGGSLRLSCAASGSTFYYYAMGWYRQAPGKERELVASINKIVGITDYADSVKGRFTISRDNAKNTGYLQRNSLTPEDTAVYYCAAHGRINPDVPRTDFFASEEDYWGQGTQVTVSS” as the sequence, how does the “polyreactivity (PSR sort gate)” value read?
A: The value was “low polyreactivity”.

Q: Which “polyreactivity (PSR sort gate)” value does the source give for “QVQLVESGGGLVQAGGSLRLSCAASGFTFKTNAMGWYRQAPGKERELVAAITSGGSTNYADSVKGRFTISRDNAKNTVYLQMNSLKPVDPAVYYCAADYGVWSEYAGWHAAFDYWGQGTQVTVSS” here?
A: Its value is “low polyreactivity”.

Q: Which “polyreactivity (PSR sort gate)” value does the source give for “QVQLVESGGGLVQAGGSLRLSCAASGITFGYYAMGWYRPAPGKERELVAAITYSGGSTYYADSVKGRFTISRDNAKNTVYLQMNCLKPEDTAVYDCAAERYVRVWVAGILHYDYWGQGTQVTVSS” here?
A: The value was “low polyreactivity”.

Q: With “QVQLVESGGGLVQAGRSLRLSCASSGSPFDPYGKGRYRQAPGKEWEWVAAITASGRTNYADSVKGRFTISRDTAKNTVYLQMNSLKPEDTAFYYCATRKELYFYRGYEYWGQGTQVTVSS” as the sequence, how does the “polyreactivity (PSR sort gate)” value read?
A: The value was “low polyreactivity”.

Q: Which “polyreactivity (PSR sort gate)” value does the source give for “QVQHVESGGGLVQAGGSLRLSCAASGITFVLNSMGWSRPAPGKERELVAAIDTSGADTYYADSVKGRFTISRDNAKNTVYLQMNSLKPEDTAVYYCAAETITDDSYEYDYWGQGTQVTVSS” here?
A: The value was “low polyreactivity”.

Q: Which “polyreactivity (PSR sort gate)” value does the source give for “QVQLVESGGGLVQAGGSLRLSCAASGRTFVSNAMGWYRQAPGKERELVAAISGSGGITYYADSVKGRFTISRDNAKNTVYLQMNSLKPEDTAVYYCNADSSGWFPFDYWGQGTQVTVSS” here?
A: The value was “low polyreactivity”.

Q: Which “polyreactivity (PSR sort gate)” value does the source give for “QVQLVESGGGLVQAGGSLRLSCAASGSTFRQYAMGWYRQAPGKERELVAAISSGGRTNYADSVKGRFTISRDNAKNTVYLQMNSLKPEDTAVYYCASDIRRRVPVRGYYYWGQGTQVTVSS” here?
A: Its value is “high polyreactivity”.

Q: Which “polyreactivity (PSR sort gate)” value does the source give for “QVQLVESGGGLVQAGGSLRLSCAASGGIFFYYVMGWYRQAPGKERELVAAITSGGSTYYADSVKGRFTISRDNAKNTVYLQMNSLKPEDTAVYSCNGRDVVDYSVWSRYAYDYWGQGTQVTVSS” here?
A: Its value is “low polyreactivity”.

Q: Which “polyreactivity (PSR sort gate)” value does the source give for “QVQLVESGGGLVQAGGSLRLSCAASGSTFSLYALGWYRQAPGKERELVAAITRGGNTYYADSVKGRFTISRDNAKNTVYLQMNSLKPEDTAVYYCNAVFPKTRSYAYGYWGQGTQVTVSS” here?
A: Its value is “high polyreactivity”.

Q: With “QVQLVESGGGLVQAGGSLRLSCAASGSTFRPYAMGWYRQAPGKERELLAAISSGDTTDYADSVKGRFTISRDNAKNTVYLQMNSLKPEDNAVYYCATVFNDLTVYEYWSRFDYWGPGTQVTVSS” as the sequence, how does the “polyreactivity (PSR sort gate)” value read?
A: The value was “low polyreactivity”.

Q: For “QVQLVESGGGLVQAGGSLRLSCDASGSTFWFNDMGWYRQAPGKERELVAAIDWSDGSTYYADSVKGRFTISRDNAKNTVYLQMNSLKPEDTAVYFCAADHRYSARRSVPTLYDYWGQGTQVTVSS”, which “polyreactivity (PSR sort gate)” value is on record?
A: The value was “low polyreactivity”.

Q: Which “polyreactivity (PSR sort gate)” value does the source give for “QVQLVESGRGLVQAGGSLRLSCAASGRTFARYAIGWYRPAPGKERELVATIRRVGSTNYADSVNGRFTISRDNAKNTVYLQMNSLKPEDTAVYYCAARSLRYGRGMYYWGQGTQVTVSS” here?
A: The value was “high polyreactivity”.

Q: Which “polyreactivity (PSR sort gate)” value does the source give for “QVQLVDSGGGLVQAGGSLRISCAASGYIFSANAMGWYRKAPGKEREFVAAISSTGGSTYYADSVKGRFTISRDTAKNTVYLQMNSLKTEDTSVYYFEAYIRRYFHYDYWGQGTQVTVSS” here?
A: Its value is “high polyreactivity”.

Q: For “QVQLVESGGGLVQAGGSLRLSCAPSGIIFKGYAMGWSRQAPGKERELVAAISHNADSTYADSVKGRFTISRDNAKNTVYLQMNSLKPEDTAVYYCNADYLYHQTSRGKYYSWGQGTQVTVSS”, which “polyreactivity (PSR sort gate)” value is on record?
A: Its value is “low polyreactivity”.

Q: With “QVQLVESGGGLVQAGGSLRLSCAASGFIFYPYAMGWYRQAPGKERELVAVITSGGRTYYADSVKGRFTISRDNAKNTVYLQMYSLKPEDTAVYYCNADTFQWWDIADVYVIVKYGYWGQGTQVTVSS” as the sequence, how does the “polyreactivity (PSR sort gate)” value read?
A: The value was “low polyreactivity”.

Q: With “QVQLVESGGGLVQAGGSLRLSCAASGRIFTPNAMGWYRQAPGKERELVAAITWSGDNTYADSVKGRFTISRDNAKNTVYLQMNSLKPEDTAVYYCAAAYGYGHKKYGYWGQGTQVTVSS” as the sequence, how does the “polyreactivity (PSR sort gate)” value read?
A: The value was “low polyreactivity”.

Q: Which “polyreactivity (PSR sort gate)” value does the source give for “QVQLVESGGGLVQAGGSLRLSCAPSGFTIGYYAMGWYRQAPGKEMELVAGISFSGTSTYYADSVKGRFTFSRDNAKNTVYLLMNSLKPEDTAVYYCNKVYYSAASKHKEYWGQGTQVTVSS” here?
A: The value was “high polyreactivity”.

Q: For “QVQLVESGGGLVQEGGSLRLTCAASGITFIYYAMGWYRQAPGKERELVAAISTGGSTYYADSVKGRCTISRDNAMNTVYLQMISLKPEDTAVYYWNALRKSLRGGDYWGQGTQVTVSS”, which “polyreactivity (PSR sort gate)” value is on record?
A: The value was “high polyreactivity”.

Q: For “QVHLVESGGGLVQAGCSLRLSCAASGSTSASYAMGCDRQAPGKERELVAAISGRGTTTYYADSVKGRFTISRDNAKNTVYLQMNSLKPEDTAVYYCAVYRRGGVEAFLYWGQGTQVTVSS”, which “polyreactivity (PSR sort gate)” value is on record?
A: The value was “high polyreactivity”.

Q: For “QVHLVESGGGLVQAGGSLRLSFAADGSSFVRYAMGWYRQAPGKEREFVAAISRTGGSTYYADSVKGRFTLSRDNAKNTVYLQMNSLKQEVTAVFYCDARYIRGYDYWGQGTKVTVSS”, which “polyreactivity (PSR sort gate)” value is on record?
A: Its value is “high polyreactivity”.

Q: For “QVQLVESGGGLVHAGGSLRLSCDASGFTFAGYSMGWYRQAPGKERELVAGIRSSGARTYYADSVKGRFTISRDNAKTTVYLQKNILKPEHTAVYYCAKTDGFYSGYGYWGQGTQVTVSS”, which “polyreactivity (PSR sort gate)” value is on record?
A: The value was “low polyreactivity”.

Q: With “QVQLVESGGGLVQAGGSLRLSSAASGSTFEAYTMGWYRPAPGKERELVAAISRSGGSTYYADSVKGRFTISRDNAKNTVYLQMNSLKPEDTAVYYCAASRYIGYNYWGQGTQVNVSS” as the sequence, how does the “polyreactivity (PSR sort gate)” value read?
A: The value was “high polyreactivity”.

Q: With “QVQLEESGGGLVQAGGSLRLSCAASGITFLTYAMGWYRQATVKERELVAGITSGGTTYYADSVKGRFTISRDNAMNTVYLQMNSLKPEDTAVYYCNADLQEYQSYDYWGQGTQVTVSS” as the sequence, how does the “polyreactivity (PSR sort gate)” value read?
A: The value was “low polyreactivity”.

Q: Which “polyreactivity (PSR sort gate)” value does the source give for “QVQLVESGGGLVQAGGSLRLSCAASGIIFLYYAMGWYRQAPGKERELVAAISKSGGSTYYADSVKGRFTISRDNAKNTVYLQMNSLKPEDTAVYYCAARLWHLSYAGQGGDYWGQGTQVTVSS” here?
A: Its value is “low polyreactivity”.

Q: With “QVQLVESGGCLVQAGGSLRLSCAASGSIFVAYAMGWYRQAPGKERELVAAITGRSGRTYYADSVKGRFTISRDNAKNTVYLQMNSLKPEDTAVYYCAARGYGTDDYDYCGQGTQVTVSS” as the sequence, how does the “polyreactivity (PSR sort gate)” value read?
A: Its value is “high polyreactivity”.

Q: For “QVQLVESGGGLVQAGGSLRLSCAASGSIFNRNAMGWYRQAPGKERELVAAITGRGGSTYYADSVKGRFTISRDNAKNTVYLQMDSLKPEDTAVYYCAAETLAPRAYYYWGQGTQVTVSS”, which “polyreactivity (PSR sort gate)” value is on record?
A: The value was “low polyreactivity”.

Q: With “QVQLVESGGGLVQAGGSLRLSCAASGSIFSRYAMGWYRTAPGKERELVAAINKSGGSTYYADSVKGRFTISRDNAKNTVYLQMNSLKPEDTAVYYCNAVYYWYKGDYWGQGTQVTVSS” as the sequence, how does the “polyreactivity (PSR sort gate)” value read?
A: The value was “high polyreactivity”.
